{"source": "paper PMC4973297", "about": "“Crystal structure of the PAS domain of the hEAG potassium channel” (Acta Crystallographica. Section F, Structural Biology …, 2016)", "proteins": {"B1": {"name": "N-PAS domain of the human EAG channel (residues 1-146) (domain or fragment, UniProt O95259 1-146, looked up)", "chain": "MTMAGGRRGLVAPQNTFLENIVRRSNDTNFVLGNAQIVDWPIVYSNDGFCKLSGYHRAEVMQKSSTCSFMYGELTDKDTIEKVRQTFENYEMNSFEILMYKKNRTPVWFFVKIAPIRNEQDKVVLFLCTFSDITAFKQPIEDDSCK", "notes": "human ether-a-go-go potassium channel (hEAG), N-terminal residues 1-146 holding the PAS domain; amplified from a human cDNA library; calculated mass 16 933.16 Da; The crystal has six molecules per asymmetric unit; Only about residues 27/28 to 135/137 are built in the model; Residues left by PreScission cleavage are not described; also called hEAG N-PAS domain; PAS domain of hEAG; not shown: GST, …"}}, "target": "the molecule itself", "test": "SEC; HiLoad 26/60 Superdex 200, 20 mM Tris-HCl pH 7.5, 200 mM NaCl, 5 mM DTT; last step of the purification", "data": [{"protein": "B1", "values": [{"measurement": "stoichiometry N", "result": 2}]}]}
